{"source": "paper PMC6314547", "about": "(The Journal of Cell Biology, 2019)", "proteins": {"B1": {"name": "FAM92A1 BAR domain (1–219 aa) (domain or fragment, UniProt A1XBS5 1-219, looked up)", "chain": "MMRRTLENRNAQTKQLQTAVSNVEKHFGELCQIFAAYVRKTARLRDKADLLVNEINAYAATETPHLKLGLMNFADEFAKLQDYRQAEVERLEAKVVEPLKTYGTIVKMKRDDLKATLTARNREAKQLTQLERTRQRNPSDRHVISQAETELQRAAMDASRTSRHLEETINNFERQKMKDIKTIFSEFITIEMLFHGKALEVYTAAYQNIQNIDEDEDLE"}}, "molecular_target": "the molecule itself", "experiment": "SEC-MALS", "data": [{"protein": "B1", "values": [{"measurement": "stoichiometry N", "result": 2}]}]}
